This note sets out measurements from publication PMC12005725.

In test [1] the target is axonemes (purified from sea urchin sperm flagella) (sea urchin). Description: single-molecule fluorescence microscopy (TIRF), dwell time; reducing condition (70 mM 2-mercaptoethanol); axonemes on the slide, 200 or 500 pM GFP-kinesin in solution, 1 mM ATP, 100 mM KCl, BRB12; 10 ms resolution; k2_SMF is the inverse of the mean dwell time.
The target in test [2] is microtubule (polymerized tubulin, taxol-stabilised) (UniProt P02550).
Sequence of UniProt P02550 (P02550 whole entry, looked up): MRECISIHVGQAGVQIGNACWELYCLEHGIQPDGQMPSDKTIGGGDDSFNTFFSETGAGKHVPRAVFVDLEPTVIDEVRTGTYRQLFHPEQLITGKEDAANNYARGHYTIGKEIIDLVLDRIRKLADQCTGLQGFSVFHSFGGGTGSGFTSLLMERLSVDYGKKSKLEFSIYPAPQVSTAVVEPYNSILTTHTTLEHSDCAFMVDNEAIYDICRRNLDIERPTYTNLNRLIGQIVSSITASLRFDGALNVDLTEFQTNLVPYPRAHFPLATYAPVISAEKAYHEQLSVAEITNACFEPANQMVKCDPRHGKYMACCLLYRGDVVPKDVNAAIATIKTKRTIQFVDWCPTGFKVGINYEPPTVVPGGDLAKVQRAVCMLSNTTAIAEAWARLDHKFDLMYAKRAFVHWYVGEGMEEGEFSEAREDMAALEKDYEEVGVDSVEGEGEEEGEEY
Test [3] shares this target. Description: stopped-flow turbidity (light scattering); reduced condition (10 mM DTT); nucleotide-free complex of 3.2 uM kinesin and 4 uM microtubule (20 uM taxol, 0.1 U/ml apyrase), 150 mM KCl added, rapidly mixed with 1 mM ATP plus 150 mM KCl; BRB25 pH 6.8, 25 C; turbidity at 340 nm, burst equation.
For test [4], the target named is axonemes (purified from sea urchin sperm flagella) (sea urchin). Description: single-molecule fluorescence microscopy (TIRF), dwell time; oxidized condition (no 2-mercaptoethanol); axonemes on the slide, 200 or 500 pM GFP-kinesin in solution, 1 mM ATP, 100 mM KCl, BRB12; 10 ms resolution; k2_SMF is the inverse of the mean dwell time.
The target of test [5] is microtubule (polymerized tubulin, taxol-stabilised) (UniProt P02550). Briefly: stopped-flow turbidity (light scattering); oxidized condition (10 uM CuCl2, 20 uM o-phenanthroline); nucleotide-free complex of 3.2 uM kinesin and 4 uM microtubule (20 uM taxol, 0.1 U/ml apyrase), 150 mM KCl added, rapidly mixed with 1 mM ATP plus 150 mM KCl; BRB25 pH 6.8, 25 C; turbidity at 340 nm, burst equation.

For test [6] the target is unchanged. Description: single-molecule fluorescence (smFRET with Alexa-ATP, TIRF) on microtubules; microtubules on a poly-L-lysine-coated slide, 100 pM ATTO488-kinesin, 500 nM Alexa Fluor 647 ATP, 150 mM KCl, 20 uM taxol, BRB12, 22 C, 10 ms exposure.
For test [7] the target is unchanged. Description: high-speed total internal reflection dark-field microscopy of gold-labeled kinesin; microtubules held on glass by protein A and anti-alpha-tubulin antibody, 3 nM gold-labeled kinesin, BRB12 with 20 mM KCl and 1-1000 uM ATP, 24-26 C, 20,000 fps; bound and unbound states of the gold-labeled WT head while the E236A head stays bound.
Test [8] shares this target. The source holds these as a separate data set.

In test [1], “GFP-fused K339 Cys-light C222/C334 kinesin, reduced (from UniProt P33176 1-339) (domain or fragment)” registered a k2 SMF (inverse of the mean dwell time on the microtubule, 1 mM ATP) of 47.2 s⁻¹.

With “Cys-light K339 C222/C334 monomer, oxidized (disulfide-crosslinked; rear head crosslink) (from UniProt P33176 1-339) (domain or fragment)”, the Km(MT) of the steady-state microtubule-activated ATPase, oxidized condition in test [2] is 0.2 µM.

For the substance “Cys-light K339 C222/C334 monomer, reduced (un-crosslinked) (from UniProt P33176 1-339) (domain or fragment)”, in test [3], the k2 (ATP-induced dissociation rate from microtubule, light scattering) was determined as 69.3 s⁻¹. The Km(MT) of the steady-state microtubule-activated ATPase, reduced condition in test [2] came to 0.23 µM.

“GFP-fused K339 Cys-light C47/C335 kinesin, oxidized (crosslinked) (from UniProt P33176 1-339) (domain or fragment)”: the k2 SMF (inverse of the mean dwell time on the microtubule, 1 mM ATP) in test [4] was 22.5 s⁻¹.

Take “GFP-fused K339 Cys-light C47/C328 kinesin, oxidized (front head crosslink) (from UniProt P33176 1-339) (domain or fragment)”: in test [4], the fold increase of the binding frequency to the microtubule after crosslinking was 4 fold and the k2 SMF (inverse of the mean dwell time on the microtubule, 1 mM ATP) was determined as 2.3 s⁻¹.

“GFP-fused K339 Cys-light C47/C328 kinesin, reduced (from UniProt P33176 1-339) (domain or fragment)”: the k2 SMF (inverse of the mean dwell time on the microtubule, 1 mM ATP) in test [1] is 42.1 s⁻¹.

With “Cys-light K339 C4/C330 monomer, oxidized (disulfide-crosslinked between cover strand and neck linker) (from UniProt P33176 1-339) (domain or fragment)”, the k2 (ATP-induced dissociation rate from microtubule, light scattering) in test [5] came to 80.8 s⁻¹. Besides, the Km(MT) of the steady-state microtubule-activated ATPase, oxidized condition in test [2] is 8.36 µM.

The substance “GFP-fused K339 Cys-light C4/C330 kinesin, reduced (from UniProt P33176 1-339) (domain or fragment)” returned a k2 SMF (inverse of the mean dwell time on the microtubule, 1 mM ATP) in test [1] of 59.5 s⁻¹.

“ATTO488-labeled 'wild-type' monomer (Cys-light K349 monomeric kinesin with Cys55) (from UniProt P33176 1-349) (domain or fragment)” displayed an inverse of the mean dwell time for head dissociation (Alexa-ATP-bound state ending in detachment from the microtubule) in test [6] of 89.7 s^–1.

Take “Cys-light K339 C47/C335 monomer, reduced (un-crosslinked) (from UniProt P33176 1-339) (domain or fragment)”: the k2 (ATP-induced dissociation rate from microtubule, light scattering) in test [3] was determined as 41.6 s⁻¹. The Km(MT) of the steady-state microtubule-activated ATPase, reduced condition in test [2] is 0.33 µM.

In test [4], “GFP-fused K339 Cys-light C4/C330 kinesin, oxidized (crosslinked) (from UniProt P33176 1-339) (domain or fragment)” showed a k2 SMF (inverse of the mean dwell time on the microtubule, 1 mM ATP) of 58.4 s⁻¹.

For the substance “Cys-light K339 C47/C328 monomer, oxidized (disulfide-crosslinked; front head crosslink) (from UniProt P33176 1-339) (domain or fragment)”, the k2 (ATP-induced dissociation rate from microtubule, light scattering) in test [5] is 7 s⁻¹. Also, the Km(MT) of the steady-state microtubule-activated ATPase, oxidized condition in test [2] came to 0.13 µM.

With “E236A–WT heterodimer without neck-linker extension (G0), WT head labeled with a gold nanoparticle (from UniProt P33176 1-490; P33176 1-490) (complex)”, in test [7], the dwell time of the microtubule-bound state of the front WT head at 10 µM ATP was determined as 1.1 s; the kcat of the inverse bound dwell time against ATP, taken as the ATP-promoted detachment rate k2 of the front WT head turned out to be 6.3 s^–1; the mean dwell time of the microtubule-bound state of the front WT head at 1 mM ATP came out at 160 ms; the mean dwell time of the unbound state of the front WT head at 1 mM ATP was 11 ms. Also, the Km (MT) of the microtubule-activated ATPase of the heterodimer (G0) in test [8] was 0.54 µM.

Consider “Cys-light K339 monomeric kinesin with no cysteine introduction (WT) (from UniProt P33176 1-339) (domain or fragment)”, for which the k2 (ATP-induced dissociation rate from microtubule, light scattering) in test [3] was 52.1 s⁻¹; in test [5], 59.1 s⁻¹. Further, the Km(MT) of the steady-state microtubule-activated ATPase, oxidized condition in test [2] is 0.36 µM. Also, in test [2], the Km(MT) of the steady-state microtubule-activated ATPase, reduced condition worked out at 0.31 µM.

For the substance “Cys-light K339 C47/C328 monomer, reduced (un-crosslinked) (from UniProt P33176 1-339) (domain or fragment)”, in test [3], the k2 (ATP-induced dissociation rate from microtubule, light scattering) stood at 51.5 s⁻¹. Also, the Km(MT) of the steady-state microtubule-activated ATPase, reduced condition in test [2] came to 0.28 µM.

Take “GFP-fused K339 Cys-light kinesin (WT, no cysteine introduction) (from UniProt P33176 1-339) (domain or fragment)”: the k2 SMF (inverse of the mean dwell time on the microtubule, 1 mM ATP) was 44 s⁻¹ in test [1] and 41.6 s⁻¹ in test [4].

As to “GFP-fused K339 Cys-light C47/C335 kinesin, reduced (from UniProt P33176 1-339) (domain or fragment)”, in test [1], the k2 SMF (inverse of the mean dwell time on the microtubule, 1 mM ATP) was determined as 52.1 s⁻¹.

“E236A–WT heterodimer with a 12 poly-Gly insertion (G12), WT head labeled with a gold nanoparticle (from UniProt P33176 1-490; P33176 1-490) (complex)”: in test [7], the dwell time of the WT head bound at the front-binding site at 1 mM ATP came out at 111 ms; the dwell time of the WT head bound at the rear-tubulin-binding site at 1 mM ATP amounted to 19 ms; the kcat of the inverse bound dwell time against ATP, taken as the ATP-induced detachment rate k2 of the front WT head came out at 9.3 s^–1. Also, the Km (MT) of the microtubule-activated ATPase of the heterodimer (G12) in test [8] amounted to 0.14 µM.

Consider “Cys-light K339 C4/C330 monomer, reduced (un-crosslinked) (from UniProt P33176 1-339) (domain or fragment)”, for which, in test [3], the k2 (ATP-induced dissociation rate from microtubule, light scattering) was 68.6 s⁻¹. For the same substance, the Km(MT) of the steady-state microtubule-activated ATPase, reduced condition in test [2] amounted to 0.42 µM.

Take “Cys-light K339 C47/C335 monomer, oxidized (disulfide-crosslinked; loose backward crosslink) (from UniProt P33176 1-339) (domain or fragment)”: the k2 (ATP-induced dissociation rate from microtubule, light scattering) in test [5] came to 19.4 s⁻¹. Besides, in test [2], the Km(MT) of the steady-state microtubule-activated ATPase, oxidized condition came to 0.1 µM.

Consider “GFP-fused K339 Cys-light C222/C334 kinesin, oxidized (rear head crosslink) (from UniProt P33176 1-339) (domain or fragment)”, for which, in test [4], the fold reduction of the binding frequency to the microtubule after crosslinking amounted to 6 fold and the k2 SMF (inverse of the mean dwell time on the microtubule, 1 mM ATP) amounted to 57.1 s⁻¹.

As to “E236A–WT heterodimer with a 7 poly-Gly insertion (G7), WT head labeled with a gold nanoparticle (from UniProt P33176 1-490; P33176 1-490) (complex)”, the kcat of the inverse bound dwell time against ATP, taken as the ATP-induced detachment rate k2 of the front WT head in test [7] was 7.6 s^–1. For the same substance, the Km (MT) of the microtubule-activated ATPase of the heterodimer (G7) in test [8] came out at 0.18 µM.
